This note sets out measurements from patent US20060183700A1, “Cgrp binding nucleic acids” (NOXXON Pharma AG, published 2006).

Where a chain is given by its changes, count along the chain named. Like-named read-outs stand apart in the source and are kept apart here. Where no end group is shown, it is not given here.

In data set [1] the target is T1, D-CGRP (biotinylated, all-D alpha-calcitonin gene-related peptide) (Rattus norvegicus) (UniProt P01256).
T1 sequence: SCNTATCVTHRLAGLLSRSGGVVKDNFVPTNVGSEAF
Particulars: 2'-F pyrimidines.

For data set [2], the target named is T2, alpha-CGRP (L) (Homo sapiens) (UniProt P06881).
T2 sequence: T1 sequence with S1A, N3D, D25N, E35K
The data set can be described thus: ITC. The following applies: L-RNA; 37 C, activity 80%.

Data set [3] addresses T1, D-CGRP (biotinylated, all-D alpha-calcitonin gene-related peptide) (Rattus norvegicus). The data set is described as follows: pulldown. Particulars: 2'-F pyrimidines, bead assay, 37 C, unit uM, probably nM.
Data set [4] shares this target. The data set is described as follows: SPR. Particulars: 2'-F pyrimidines; clone shortened by two nucleotides; Biacore and ITC; higher by factor two at 37 C. A general note: In SPR one partner is held on a chip, and binding of the other changes the refractive index at the surface.
For data set [5], the target named is T3, calcitonin receptor on SK-N-MC cells (human) (UniProt P30988).
T3 sequence (looked up): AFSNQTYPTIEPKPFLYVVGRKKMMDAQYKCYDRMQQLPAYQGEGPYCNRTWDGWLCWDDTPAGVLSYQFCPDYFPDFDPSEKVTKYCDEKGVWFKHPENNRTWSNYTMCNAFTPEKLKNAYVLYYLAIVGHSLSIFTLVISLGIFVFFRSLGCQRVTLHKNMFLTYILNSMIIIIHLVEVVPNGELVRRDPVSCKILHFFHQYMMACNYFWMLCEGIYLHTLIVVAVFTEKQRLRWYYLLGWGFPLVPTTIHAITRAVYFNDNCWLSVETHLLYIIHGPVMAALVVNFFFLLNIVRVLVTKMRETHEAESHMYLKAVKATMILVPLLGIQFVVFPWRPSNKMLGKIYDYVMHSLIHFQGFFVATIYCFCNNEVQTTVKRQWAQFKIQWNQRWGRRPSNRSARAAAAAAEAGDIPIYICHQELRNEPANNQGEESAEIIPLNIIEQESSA
The data set can be described thus: cell-based or functional assay.

The target in data set [6] is CGRP receptor on SK-N-MC cells. The data set is described as follows: cell-based or functional assay.
The target in data set [7] is calcitonin receptor-like receptor (CRLR) on SK-N-MC cells (human) (UniProt Q16602). The data set can be described thus: cell-based or functional assay.
calcitonin receptor-like receptor (CRLR) on SK-N-MC cells (human), sequence (Q16602 23-461): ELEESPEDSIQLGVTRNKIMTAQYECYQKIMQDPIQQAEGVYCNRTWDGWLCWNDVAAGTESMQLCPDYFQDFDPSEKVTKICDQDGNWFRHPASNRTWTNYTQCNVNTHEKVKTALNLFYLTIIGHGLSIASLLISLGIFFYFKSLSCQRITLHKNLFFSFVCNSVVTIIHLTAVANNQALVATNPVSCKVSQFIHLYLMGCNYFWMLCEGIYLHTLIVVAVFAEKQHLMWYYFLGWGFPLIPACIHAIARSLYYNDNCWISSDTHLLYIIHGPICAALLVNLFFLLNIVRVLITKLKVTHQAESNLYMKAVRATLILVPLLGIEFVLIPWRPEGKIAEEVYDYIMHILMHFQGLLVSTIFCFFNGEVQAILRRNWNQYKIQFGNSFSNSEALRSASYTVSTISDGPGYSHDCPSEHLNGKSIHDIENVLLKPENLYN
The target of the next data set is T4, CGRP (biotinylated) (Rattus norvegicus, UniProt P01256 P01256:83-119).
T4 chain: T1 sequence
The data set can be described thus: SPR; KD in narrow band around G12. Particulars: protein: synthetic; tags: biotin; synthetic peptide, Jerini.

The target of data set [8] is T3, calcitonin receptor on SK-N-MC cells (human). The data set is described as follows: cell-based or functional assay. The source holds these as a separate data set.
In data set [9] the target is CGRP receptor on SK-N-MC cells. The data set is described as follows: cell-based or functional assay. This is another data set of the same source.

As for “CGCAGCCUUCACUGCAGUGACGCACGUAUGAUAGUUUCCAUUUUGGACUCCUGCG [732_045]”, the Kd in [1] is 30000 nM. The same measure, in the same setting: to “CGCUCAGCCUUCACUGCAGUGACGCACGUAUGAUAGUUUCCAUUUUGGACUCCUGGGCG [732_096]” belongs 30000 nM. For “GGACUGAUGGCGCGGUCCUAUUACGCCGAGAAGGGAGUGGGGGA [L097 (NOX-504-097) spiegelmer]”, in data set [2], the equilibrium dissociation constant (Kd) amounted to 0.052 µM.

Consider “GGAGCUCAGCCUUCACUGCAGUGACGCACGUAUGAUAGUUUCCAUUUUGGACUCCUGGGCACCACGGUCGGAUCCAC [clone 732]”, for which the Kd was 23 µM in data set [3], 20000 nM in data set [1] (666 with G20-A21 excised (in analogy to clone 732)) and 10000 nM in [4]. As for “GGAGCUCAGCCUUCACUGCGAAGUGACGCACGUAUGAUAGUUUCCAUUUUGGACUCCUGGGCACCACGGUCGGAUCCAC [clone 666]”, in [1] (unit uM, probably misprint for nM, method not specified here (Biacore/ITC in Ex. 1)), the equilibrium dissociation constant (Kd) was found to be 10000 nM.

As for “GGCAGCCUUCACUGCAGUGACGCACGUAUGAUAGUUUCCAAG / CUUGGACUCCUGCC [732_071a+732_071b]”, the dissociation constant Kd in [1] (two-strand binder) stood at 100000 nM. “GGCAGCCUUCACUGCAGUGACGCACGUAUGAUAGUUUCCAUUUUGGACUCCUGCC [732_026]”: the dissociation constant (Kd) in [1] (stem shortened to five base pairs, FIG. 7) turned out to be 30000 nM. As for “GGCAGCCUUCCUGCAGGACGCACGUAUGAUAGUUUCCUUUGGACUCCUGCC [732_100]”, in [1] (51mer), the equilibrium dissociation constant (Kd) amounted to 75000 nM.

Regarding “GGCAGCCUUCCUGCAGGACGCACGUAUGAUAGUUUGCUUUGCACUCCUGCC [732_104]”, the dissociation constant Kd in [1] is 40000 nM. Still for that read-out and setting: the figure for “GGCAGCCUUGCUGCAGCACGCACGUAUGAUAGUUUCCUUUGGACUCCUGCC [732_103]” is 20000 nM; for “GGCUCAGCCUUCACUGCAGUGACGCACGUAUGAUAGUUUCCAUUUUGGACUCCUGGGCC [732_029]” it is 30000 nM. Take “human amylin (from UniProt P10997 34-70) (peptide)”: the EC50, cAMP production in SK-N-MC cells in [5] was found to be 3 µM. For the molecule “human α-CGRP (from UniProt P06881 83-119) (peptide)”, in data set [6], the EC50, intracellular cAMP in SK-N-MC cells was determined as 1 µM.

B1: rat adrenomedullin (peptide, UniProt P43145 94-143, looked up)
peptide: YRQSMNQGSRSTGCRFGTCTMQKLAHQIYQFTDKDKDGMAPRNKISPQGY
As to B1, in data set [7], the EC50, cAMP production in SK-N-MC cells was found to be 30 µM and the EC50, intracellular cAMP in SK-N-MC cells came to 0.03 µM.

B2: G12f (ssRNA)
RNA: GGAGCUCAGCCUUCACUGCAUCGAGGGCGAUCCAAGUUGUAGGAAUGGGGUGGCUUGGAGGGCACCACGGUCGGAUCCAG
On to B2, for which, in the data set with CGRP (biotinylated), the binding result was “binds”.

B3: G12d (ssRNA)
RNA: GGAGCUCAGCCUUCACUGCAUCGAAGGCGAUCCAAGUUGUAAGAAUGGGGGUGGCUUGGAGGGCACCACGGUCGGAUCCAG
For the molecule B3, the binding result in the data set with CGRP (biotinylated) is given as “binds”.

B4: G12e (ssRNA)
RNA: GGAGCUCAGCCUUCACUGCAUCGAGGCGAUCCAAGUUGUAGGAAUUGGAUGACUUGGAGGGCACCACGGUCGGAUCCAG
As to B4, the binding result in the data set with CGRP (biotinylated) is “binds”.

B5: G12g (ssRNA)
RNA: B4 RNA with G25A, U46G, A49G, G51A, A52G
Consider B5, for which the binding result in the data set with CGRP (biotinylated) is “binds”.

B6: rat amylin (peptide, UniProt P12969 38-74, looked up)
peptide: KCNTATCATQRLANFLVRSSNNLGPVLPPTNVGSNTY
As to B6, the EC50, cAMP production in SK-N-MC cells in data set [8] amounted to 1 µM.

B7: G12c (ssRNA)
RNA: GGAGCUCAGCCUUCACUGCAUCGAGGCGAUCCAAGUUGAGGAAUGGGGUGGCUUGGAGGGCACCACGGUCGGAUCCAG
With B7, in the data set with CGRP (biotinylated), the binding result is reported as “binds”.

B8: G12a (ssRNA)
RNA: GGAGCUCAGCCUUCACUGCAUCGAGGCAUCCAAGUUAUAGGAAUAGGGUGGCUUGAAGGGCACCACGGUCGGAUCCAG
On to B8, for which, in the data set with CGRP (biotinylated), the binding result is recorded as “binds”.

B9: G12b (ssRNA)
RNA: B8 RNA
As for B9, in the data set with CGRP (biotinylated), the binding result is “binds”.

B10: rat α-CGRP (calcitonin gene-related peptide I, rat) (peptide, UniProt P01256 83-119, looked up)
peptide: T1 sequence
modifications: ends and bridges not checked; cysteine pairing not given here
In the case of B10, in [9], the EC50, intracellular cAMP in SK-N-MC cells came to 1 µM and the cAMP formation in SK-N-MC cells, half-maximum activation was found to be 1 nM.

B11: human β-CGRP (calcitonin gene-related peptide II) (peptide, UniProt P10092 82-118, looked up)
peptide: T1 sequence with S1A, V22M, D25S, E35K
modifications: ends and bridges not checked; cysteine pairing not given here
In [9], B11 displayed an EC50, intracellular cAMP in SK-N-MC cells of 1 µM.

B12: human adrenomedullin (peptide, UniProt P35318 95-146, looked up)
peptide: YRQSMNNFQGLRSFGCRFGTCTVQKLAHQIYQFTDKDKDNVAPRSKISPQGY
Regarding B12, in data set [7], the EC50, cAMP production in SK-N-MC cells was determined as 30 µM and the EC50, intracellular cAMP in SK-N-MC cells came out at 0.03 µM.

One may read the Kd as the equilibrium constant for the complex coming apart.
